Test results as given in PMC8635433 (Science Advances, 2021).

Biological target: coxsackie and adenovirus receptor (CAR), immobilised for SPR (UniProt P78310 20-365)
Assay: SPR; BIAcore T200; about 2000 RU of CAR, DSG2 and CD46 amine-coupled to a CM5 chip; fiber knob proteins flowed over, 1:2 serial dilutions; 25°C, PBS with 0.001% P20, 30 μl/min; 1:1 interaction model
Conditions: both partners purified

Sequence of coxsackie and adenovirus receptor (CAR), immobilised for SPR (P78310 20-365): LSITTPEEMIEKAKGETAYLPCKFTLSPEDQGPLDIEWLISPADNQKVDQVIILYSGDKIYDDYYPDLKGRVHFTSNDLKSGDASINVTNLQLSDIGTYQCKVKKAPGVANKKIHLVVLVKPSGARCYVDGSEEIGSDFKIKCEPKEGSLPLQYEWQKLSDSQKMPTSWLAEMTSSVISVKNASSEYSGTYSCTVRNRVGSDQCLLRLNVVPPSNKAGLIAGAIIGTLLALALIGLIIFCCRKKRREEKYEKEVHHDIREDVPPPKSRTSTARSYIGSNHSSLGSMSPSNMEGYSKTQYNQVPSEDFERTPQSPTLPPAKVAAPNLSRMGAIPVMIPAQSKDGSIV

B1: HAdV-C5 fiber knob protein (domain or fragment)
chain: TGAITVGNKNNDKLTLWTTPAPSPNCRLNAEKDAKLTLVLTKCGSQILATVSVLAVKGSLAPISGTVQSAHLIIRFDENGVLLNNSFLDPEYWNFRNGDLTEGTAYTNAVGFMPNLSAYPKSHGKTAKSNIVSQVYLNGDKTKPVTLTITLNGTQETGDTTPSAYSMSFSWDWSGHNYINEIFATSSYTFSYIAQE
notes: source: recombinant soluble knob protein, purified
  Kd: 0.06 nM
